Source: patent US20230151095A1 (published 2023)
Numbering of substitutions follows the chain as printed. Like-named read-outs stand apart in the source and are kept apart here.

Columns and labels:
XENP38100 (1D2B4) [1] = experiment: Octet
XENP38100 (1D2B4) [2] = experiment: Octet; remark: listed apart in the source
[3] = target: T1, XENP23311 (His-tagged NKG2D-Fc) (human, UniProt P26718 78-216); experiment: Biacore; 1:1 Langmuir
T1 chain: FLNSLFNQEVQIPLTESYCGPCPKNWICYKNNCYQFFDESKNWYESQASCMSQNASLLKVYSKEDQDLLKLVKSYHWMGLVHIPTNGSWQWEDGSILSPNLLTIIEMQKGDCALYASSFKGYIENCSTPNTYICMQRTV

[4] = target: T1, XENP23311 (His-tagged NKG2D-Fc); experiment: Biacore; steady state
NKG2D = target: T2, NKG2D (human, UniProt P26718 78-216)
T2 chain: T1 chain

CD16 = CD16 (UniProt P08637 17-208)
Chain of CD16 (P08637 17-208): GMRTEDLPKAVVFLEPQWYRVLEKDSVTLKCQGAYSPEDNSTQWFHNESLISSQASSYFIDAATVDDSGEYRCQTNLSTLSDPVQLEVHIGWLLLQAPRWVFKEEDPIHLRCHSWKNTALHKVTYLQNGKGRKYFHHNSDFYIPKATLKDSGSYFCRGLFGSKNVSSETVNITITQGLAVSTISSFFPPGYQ

[5] = target: T1, XENP23311 (His-tagged NKG2D-Fc); experiment: Octet; bivalent format
B7H3 = target: T3, B7H3 (human, UniProt Q5ZPR3 29-466); experiment: -; monovalent, 1+1 bispecific format
T3 chain: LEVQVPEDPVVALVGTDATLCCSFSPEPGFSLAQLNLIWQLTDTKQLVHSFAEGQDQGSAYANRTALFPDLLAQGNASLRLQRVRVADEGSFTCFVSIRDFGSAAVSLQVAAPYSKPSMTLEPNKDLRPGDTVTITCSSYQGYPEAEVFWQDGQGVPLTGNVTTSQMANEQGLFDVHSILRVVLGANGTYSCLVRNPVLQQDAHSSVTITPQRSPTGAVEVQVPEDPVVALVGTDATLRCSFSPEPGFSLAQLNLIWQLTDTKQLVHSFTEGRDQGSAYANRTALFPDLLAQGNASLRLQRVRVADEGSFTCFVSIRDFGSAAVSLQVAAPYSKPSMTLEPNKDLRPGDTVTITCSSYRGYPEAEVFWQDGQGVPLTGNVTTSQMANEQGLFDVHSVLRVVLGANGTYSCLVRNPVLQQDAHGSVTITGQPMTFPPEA

B1: cynomolgus NKG2D (receptor)
chain: T1 chain with D38N, T128I
Kd (XENP38100 (1D2B4) [1]): 5.05 nM

B2: human NKG2D (Fc fusion)
chain: T1 chain
Kd (XENP38100 (1D2B4) [2]): 10.4 nM

B3: XENP42653 (bispecific antibody)
heavy: EVQLLESGGGLVQPGGSLRLSCAVSGFSLSSYGVIWVRQAPGKGLEYVSWVSSGGSTNYASSVKGRFTISRDTSKNTVYLQMNSLRAEDTAVYFCARGATNSGTDIWGPGTLVTVSSASTKGPSVFPLAPSSKSTSGGTAALGCLVKDYFPEPVTVSWNSGALTSGVHTFPAVLQSSGLYSLSSVVTVPSSSLGTQTYICNVNHKPSDTKVDKKVEPKSCDKTHTCPPCPAPELLGGPSVFLFPPKPKDTLMISRTPEVTCVVVDVSHEDPEVKFNWYVDGVEVHNAKTKPREEEYNSTYRVVSVLTVLHQDWLNGKEYKCKVSNKALPAPIEKTISKAKGQPREPQVYTLPPSREEMTKNQVSLTCDVSGFYPSDIAVEWESDGQPENNYKTTPPVLDSDGSFFLYSKLTVDKSRWEQGDVFSCSVMHEALHNHYTQKSLSLSPGK
chain: not shown
light: DIVMTQSPSSLSASVGDRVTITCRASQSINSWLSWYQQKPGKPPKLLIYGASNLASGVPSRFKGSGSGTDFTLTISSLQPEDFATYYCQNNYGIIAAGATFGGGTKVEIKRTVAAPSVFIFPPSDEQLKSGTASVVCLLNNFYPREAKVQWKVDNALQSGNSQESVTEQDSKDSTYSLSSTLTLSKADYEKHKVYACEVTHQGLSSPVTKSFNRGEC
Kd [3]: 14800 nM | Kd [4]: 5410 nM

B4: XENP40376 B7H3 Fab x NKG2D scFv (1+1) (antibody)
chain 1: EVQLLESGGGLVQPGGSLRLSCAVSGFSLSSYGVIWVRQAPGKGLEYVSWVSSGGSTNYASSVKGRFTISRDTSKNTVYLQMNSLRAEDTAVYFCARGATNSGTDIWGPGTLVTVSSASTKGPSVFPLAPSSKSTSGGTAALGCLVKDYFPEPVTVSWNSGALTSGVHTFPAVLQSSGLYSLSSVVTVPSSSLGTQTYICNVNHKPSDTKVDKKVEPKSCDKTHTCPPCPAPPVAGPSVFLFPPKPKDTLMISRTPEVTCVVVDVKHEDPEVKFNWYVDGVEVHNAKTKPREEEYNSTYRVVSVLTVLHQDWLNGKEYKCKVSNKALPAPIEKTISKAKGQPREPQVYTLPPSREEMTKNQVSLTCDVSGFYPSDIAVEWESDGQPENNYKTTPPVLDSDGSFFLYSKLTVDKSRWEQGDVFSCSVMHEALHNHYTQKSLSLSPGK
chain 2: not shown
chain 3: B3 light
Kd (NKG2D): 7.72 nM

B5: XENP42655 (bispecific antibody)
heavy: B3 heavy
chain: not shown
light: B3 light
Kd [3]: 4190 nM | Kd [4]: 1490 nM

B6: XENP41036 (antibody)
chain 1: B3 heavy with I332E
chain 2: EVQLLESGGGLVQPGGSLRLSCAVSGFSLSSYGVIWVRQAPGKGLEYVSWVSSGGSTNYASSVKGRFTISRDTSKNTVYLQMNSLRAEDTAVYFCARGATNSGTDIWGPGTLVTVSSGKPGSGKPGSGKPGSGKPGSDIVMTQSPSSLSASVGDRVTITCRASQSINSWLSWYQQKPGKPPKLLIYGASNLASGVPSRFKGSGSGTDFTLTISSLQPEDFATYYCQNNYGIIAAGATFGGGTKVEIKEPKSSDKTHTCPPCPAPELLGGPDVFLFPPKPKDTLMISRTPEVTCVVVDVSHEDPEVKFNWYVDGVEVHNAKTKPREEQYNSTYRVVSVLTVLHQDWLNGKEYKCKVSNKALPAPIEKTISKAKGQPREPQVYTLPPSREQMTKNQVKLTCLVKGFYPSDIAVEWESNGQPENNYKTTPPVLDSDGSFFLYSKLTVDKSRWQQGNVFSCSVMHEALHNHYTQKSLSLSPGK
chain 3: B3 light
Kd (CD16): 104 nM

B7: XENP41032 (antibody)
chain 1: B3 heavy with S239D, I332E
chain 2: B6 chain 2 with D271S, I364E
chain 3: B3 light
Kd (CD16): 60.2 nM

B8: XENP41029 (antibody)
chain 1: B3 heavy with S239D
chain 2: not shown
chain 3: B3 light
Kd (CD16): 229 nM

B9: XENP42654 (bispecific antibody)
heavy: B3 heavy
chain: not shown
light: B3 light
Kd [3]: 360 nM | Kd [4]: 190 nM

B10: XENP41026 (antibody)
chain 1: B3 heavy
chain 2: B6 chain 2
chain 3: B3 light
Kd (CD16): 219 nM

B11: XENP42652 (bispecific antibody)
heavy: B3 heavy
chain: not shown
light: B3 light
Kd [3]: 253 nM | Kd [4]: 162 nM

B12: XENP41023 (antibody)
chain 1: B3 heavy with S239D
chain 2: B6 chain 2
chain 3: B3 light
Kd (CD16): 102 nM

B13: XENP40557 B7H3 Fab x NKG2D scFv (mAb-scFv) (antibody)
chain 1: B4 chain 1
chain 2: not shown
chain 3: B3 light
Kd (NKG2D): 28.8 nM

B14: XENP41024 (antibody)
chain 1: B3 heavy with I332E
chain 2: B6 chain 2 with D271S, I364E
chain 3: B3 light
Kd (CD16): 120 nM

B15: XENP40375_H1L1 (antibody)
chain 1: B3 heavy
chain 2: not shown
chain 3: B3 light
Kd [3]: 15.5 nM | Kd [4]: 19 nM

B16: XENP38098 (LB_1002, Bivalent) (antibody, V domains shown)
VH: EVQLVESGGGLVKPGGSLRLSCAASGFTFSSYSMNWVRQAPGKGLEWVSSISSSSSYIYYADSVKGRFTISRDNAKNSLYLQMNSLRAEDTAVYYCARGAPMGAAAGWFDPWGQGTLVTVSS
VL: DIQMTQSPSSVSASVGDRVTITCRASQGISSWLAWYQQKPGKAPKLLIYAASSLQSGVPSRFSGSGSGTDFTLTISSLQPEDFATYYCQQGVSFPRTFGGGTKVEIKR
Kd [5]: 0.49 nM

B17: XENP38097 (LB_1001, Bivalent) (antibody, V domains shown)
VH: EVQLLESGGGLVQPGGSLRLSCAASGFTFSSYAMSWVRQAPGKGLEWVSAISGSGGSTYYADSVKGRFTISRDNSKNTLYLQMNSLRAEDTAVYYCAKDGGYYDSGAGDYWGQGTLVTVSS
VL: B16 VL with S30D, F94Y
Kd [5]: 0.42 nM

B18: XENP38093 (1D2B4, Bivalent) (antibody, V domains shown)
VH: EVQLLESGGGLVQPGGSLRLSCAASGFTFSSFGMSWVRQAPGKGLEWVSTISGSGSTTYYADSVKGRFTISRDNSKNTLYLQMNSLRAEDTAVYYCAKGVFSEWHYYFDYWGQGTLVTVSS
VL: not shown
Kd [5]: 0.52 nM

B19: 2E4A3_H1.22_L1 (antibody, V domains shown)
VH: QVQLVQSGAEVKKPGASVKVSCKASGYIFTNNYMHWVRQAPGQGLEWMGIISPSVGRTAYAQKFQGRVTMTRDTSTSTVYMELSSLRSEDTAVYYCARGGGSSPRLDYWGQGTLVTVSS
VL: not shown
Kd (B7H3): 6.1 nM

B20: 38E2_H2_L1.1 (antibody, V domains shown)
VH: EVQLLESGGGLVQPGGSLRLSCAVSGFSLSSYGVIWVRQAPGKGLEYVSWVSSGGSTNYASSVKGRFTISRDTSKNTVYLQMNSLRAEDTAVYFCARGATNSGTDIWGPGTLVTVSS
VL: DIVMTQSPSSLSASVGDRVTITCRASQSINSWLSWYQQKPGKPPKLLIYGASNLASGVPSRFKGSGSGTDFTLTISSLQPEDFATYYCQNNYGIIAAGATFGGGTKVEIK
Kd (B7H3): 0.5 nM
